Results taken from publication PMC7750480, “A hybrid approach reveals the allosteric regulation of GTP cyclohydrolase I” (Proceedings of the National Academy of Sciences of the …, 2020).
Changes are numbered by the printed parent chain. Names may count otherwise.

Experiments:
[1] = target: T1, GCH1 (Homo sapiens, UniProt P30793); assay: STD NMR assay with active site reporter ligand GTP; format: binding; details: addition of another active site binder
T1 construct: The hGCH1 (42-250, N-terminal 6xHis Tag and TEV cleavage site); 6xHis (N); TEV cleavage site (N); made in house; host or cells: E. coli BL21(DE3)
T1 sequence (P30793 42-250): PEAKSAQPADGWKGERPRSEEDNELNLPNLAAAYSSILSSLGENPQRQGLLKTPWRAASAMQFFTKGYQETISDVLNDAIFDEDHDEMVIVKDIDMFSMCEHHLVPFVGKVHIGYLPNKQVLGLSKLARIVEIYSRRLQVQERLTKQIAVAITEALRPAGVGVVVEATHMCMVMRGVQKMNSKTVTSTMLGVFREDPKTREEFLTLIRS
Description: Supplemental Figure 6: Detection of product formation and STD NMR assay. A) Enzyme activity assay for GCH1 based on colorimetric detection of H2NTP or 1H-NMR detection of formate. […]
inhibitor (e.g. BH4). B) STD NMR is capable to detect GTP binding (green). Addition of another active site binder (8-oxo […]
STD NMR enhancement of substrate GTP in the presence of allosteric regulator BH4 (red). This screening assay allows for the identification of allosteric binders. C) Correlation of activity in functional NMR assay and STD NMR enhancement of active site reporter ligand GTP.
(1 picture or pasted object on this page, not shown here)

[2] = substrate: Nc1nc2c(ncn2[C@@H]2O[C@H](COP(=O)(O)OP(=O)(O)OP(=O)(O)O)[C@@H](O)[C@H]2O)c(=O)[nH]1; assay: enzyme kinetics, H2NTP formation at 330 nm, WT GCH1; format: biochemical, human; details: other: substrate GTP 1-2000 µM, without GFRP, not stimulated/inhibited; pH 7.5; 37.0 °C
Experimental: (§1) In order to test the role of the key residues H126, D127, E128, R235, and R241 involved in allosteric inhibitor binding and conformational change, various point mutants were prepared and tested for their ability to be stimulated and inhibited by effector molecules in the presence or absence of GFRP. […] Enzyme activity was evaluated using an activity assay measuring the formation of the product H2NTP at 330 nm with increasing GTP concentrations.
(§2) GTPCH-I specific enzyme activity was determined by spectrometric measuring of the concentration of its direct product H2NTP. Synergy H1 (BioTek Instruments) and Gen5 2.01 software were used to evaluate H2NTP concentration and the maximal turnover rate (Vmax) within each measuring interval. H2NTP concentration was measured at 330 nm over a measuring period of 2 h using a measuring interval of 2 min to 4 min at 37 °C. Samples were prepared using 2 μM GTPCH-I, varying concentrations of GTP (1 μM to 2,000 µM) and in the absence or presence of 15 mM phenylalanine, 0.1 mM BH4, or 3 μM GFRP. The assay buffer used was 50 mM Tris/HCl, pH 7.5, 100 mM KCl. The specific enzyme activity (A) was calculated using the path length of 0.15 cm and the extinction coefficient […] = 6,300 M^−1⋅cm^−1 H2NTP. […] All enzymatic data were, at least, measured in triplicate (n = 3).

[3] = substrate: Nc1nc2c(ncn2[C@@H]2O[C@H](COP(=O)(O)OP(=O)(O)OP(=O)(O)O)[C@@H](O)[C@H]2O)c(=O)[nH]1; assay: enzyme kinetics, H2NTP formation at 330 nm, F122A GCH1; format: biochemical, human; details: other: substrate GTP 1-2000 µM, without GFRP, not stimulated/inhibited; pH 7.5; 37.0 °C
Experimental: as §1, §2

[4] = substrate: Nc1nc2c(ncn2[C@@H]2O[C@H](COP(=O)(O)OP(=O)(O)OP(=O)(O)O)[C@@H](O)[C@H]2O)c(=O)[nH]1; assay: enzyme kinetics, H2NTP formation at 330 nm, R241A-GCH1; format: biochemical, human; details: other: substrate GTP 1-2000 µM, without GFRP, not stimulated/inhibited; pH 7.5; 37.0 °C
Experimental: as §1, §2

[5] = substrate: Nc1nc2c(ncn2[C@@H]2O[C@H](COP(=O)(O)OP(=O)(O)OP(=O)(O)O)[C@@H](O)[C@H]2O)c(=O)[nH]1; assay: enzyme kinetics, H2NTP formation at 330 nm, D127A GCH1; format: biochemical, human; details: other: substrate GTP 1-2000 µM, without GFRP, not stimulated/inhibited; pH 7.5; 37.0 °C
Experimental: as §1, §2

[6] = substrate: Nc1nc2c(ncn2[C@@H]2O[C@H](COP(=O)(O)OP(=O)(O)OP(=O)(O)O)[C@@H](O)[C@H]2O)c(=O)[nH]1; assay: enzyme kinetics, H2NTP formation at 330 nm, R235A-GCH1; format: biochemical, human; details: other: substrate GTP 1-2000 µM, without GFRP, not stimulated/inhibited; pH 7.5; 37.0 °C
Experimental: as §1, §2

**Q.** For `Nc1nc2c([nH]c(=O)n2[C@@H]2O[C@H](COP(=O)(O)OP(=O)(O)OP(=O)(O)O)[C@@H](O)[C@H]2O)c(=O)[nH]1` [8-oxo GTP, 8-oxo-GTP], which “effect on STD NMR signal of GTP (active site competition)” value [1] is on record?
**A.** loss of the signal

B1: GCH1 (WT) (Homo sapiens) (protein)
chain: T1 sequence (P30793 42-250)
notes: The hGCH1 (42-250, N-terminal 6xHis Tag and TEV cleavage site); 6xHis (N); TEV cleavage site (N); made in house; host or cells: E. coli BL21(DE3)
**Q.** How did the Km [2] turn out when B1 was run?
**A.** 106 µM

B2: F122A GCH1 (Homo sapiens; F122A) (protein)
chain: T1 sequence (P30793 42-250) with F81A
notes: as for B1
**Q.** B2 was tested. Which Km [3] did it give?
**A.** 434 µM

B3: R241A-GCH1 (Homo sapiens; R241A) (protein)
chain: T1 sequence (P30793 42-250) with R200A
notes: as for B1
**Q.** How did the Km [4] turn out when B3 was run?
**A.** 306 µM

B4: D127A GCH1 (Homo sapiens; D127A) (protein)
chain: T1 sequence (P30793 42-250) with D86A
notes: as for B1
**Q.** For B4, which Km [5] is on record?
**A.** 483 µM

B5: R235A-GCH1 (Homo sapiens; R235A) (protein)
chain: T1 sequence (P30793 42-250) with R194A
notes: as for B1
**Q.** With B5 as the molecule, how does the Km [6] read?
**A.** 328 µM
